Earlier results in article PMC6600238.

Target: vitronectin (Homo sapiens) (UniProt P04004)
Sequence of UniProt P04004 (P04004 399-478): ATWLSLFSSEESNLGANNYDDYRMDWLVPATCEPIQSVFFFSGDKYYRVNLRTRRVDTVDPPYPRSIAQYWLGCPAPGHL

Kd: 4 µM
Substance: uPAR (from UniProt Q03405)
